Data taken from publication PMC7052167, “TCR–pMHC bond conformation controls TCR ligand discrimination” (Cellular and Molecular Immunology, 2019).

Columns and labels:
[1] = test system: TCR microclusters of 5C.C7 T cells; test: TCR microcluster formation at the T-cell synapse; type: cell-based, mouse; settings: 1 µM LA
Source text: TCRs form microclusters upon antigen stimulation (Movie S4). To measure the conformational dynamics of single TCR–pMHC bonds without possible interference from TCR microclusters, we used latrunculin A (LA) to prevent the formation of TCR microclusters during smFRET measurements. […] We then performed smFRET in the absence of TCR microclusters.
To test whether TCR–CD3ζ conformational changes were dependent on TCR signaling, we used an Src kinase inhibitor PP2[27] to block TCR signaling. Consistent with the results of a previous study,[21] […] To reveal the role of TCR signaling in TCR–CD3ζ conformational changes, we plotted the time trajectories of the normalized intramolecular TCR–CD3ζ distances against the stimulation time in the absence and presence of PP2 (Fig. 4d). In the absence of PP2, the intracellular CD3ζ chain quickly separated from the TCR extracellular domain upon TCR engagement with the K5 pMHC and then reached a stable, fully extended TCR–CD3ζ conformation.
To measure the TCR–pMHC bond distance by smFRET in the absence of CD4 binding, T cells were incubated with 10 μg/mL anti-CD4 antibody (GK 1.5, Biolegend) and 0.027 µg/µL of Cy5-J1 scFV for 30 min at 4 °C. After three washes, the cells were added to a lipid bilayer containing Cy3-pMHCs, and smFRET assays were performed in the continuous presence of 10 μg/mL anti-CD4 antibody at 37 °C using TIRF microscopy. […]

5C.C7 TCR = test: Single-molecule FRET (smFRET) measurement of TCR–pMHC bond distance on lipid bilayer (TIRF); type: cell-based, mouse; settings: 1 µM LA, 1 h pretreatment and continuous presence, smFRET 37 °C, K5, MCC, 102S, 339–1295 trajectories per histogram
Description: We next performed Cy3/Cy5 single-molecule FRET (smFRET) on a lipid bilayer to measure the conformations of single TCR–pMHC bonds using TIRF microscopy (Fig. 2 and Fig. S1b). TCR–pMHC bond formation at live T-cell membrane brought the donor Cy3 and the acceptor Cy5 into close enough proximity to produce smFRET (Figs. 1a and 2a). The fluorescent intensities of Cy3 and Cy5 were simultaneously recorded in real time (Fig. 2b, top panel, and Fig. S4a), and the EFRET values were calculated based on the fluorescence intensities of the donor Cy3 and the acceptor Cy5 (Fig. 2b, bottom panel). […] By plotting the EFRET histogram and fitting it with a Gaussian function, we determined the most probale EFRET value of 0.7, corresponding to a 47 ± 3 Å distance between the 5C.C7 TCR and the super agonist K5 pMHC in a representative smFRET trajectory (Fig. 2c). […] We further measured the average TCR–pMHC bond distances using ensemble FRET on both a lipid bilayer and a glass surface (Figs. S4b and S7), and the results confirmed the single-bond measurements obtained using smFRET (Fig. 2d).
For the FRET measurements between TCRs and pMHCs on the cell surface (FRET1), we generated a peptide-exchangeable CLIP-IE^k molecule.[41] […] The protein fractions were analyzed by SDS-PAGE. […]

[2] = target: 5C.C7 TCR (mouse (5C.C7 TCR transgenic mice)); test: FRET or BRET; ensemble Cy3/Cy5 FRET1 at the synapse; His-tagged Cy3-pMHC on a lipid bilayer (95 molecules/um^2) or a PEG-Ni2+ glass surface with ICAM-1 and B7-1; TCR on live primary 5C.C7 T cells labelled with scFv J1-Cy5; 37 °C
[3] = target: 5C.C7 TCR (mouse (5C.C7 TCR transgenic mice))
[4] = target: 5C.C7 TCR (mouse (5C.C7 TCR transgenic mice)); test: 2D micropipette adhesion frequency assay; biotinylated pMHC monomers on human RBCs by biotin–streptavidin; 5C.C7 T-cell blasts pre-incubated with 10 ug/mL anti-CD4 (GK 1.5); contact times 0.25-5 s, 50 cycles each; 25 °C (legend of Fig. 5); effective 2D constants from a probabilistic kinetic model

average synaptic E FRET1 [2] | separation between the TCR and CD3ζ after TCR–pMHC binding (transmembrane GFP/Alexa568 FRET2, lipid bilayer, 37 °C) [3] | AcKa (effective 2D affinity) [4] | AcKon (effective 2D on-rate) [4] | koff [4] | Compound | also measured
 |  |  |  |  | C/C1=C/C(=O)O[C@@H]2C[C@@H](CC[C@H](C)/C=C\C=C\CC1)O[C@@](O)([C@@H]1CSC(=O)N1)C2 [latrunculin A] | effect of LA on TCR microcluster formation [1]: no TCR microclusters were observed; effect on TCR–pMHC bond distances (latrunculin A) (5C.C7 TCR): very close to those measured in the presence of TCR microclusters; effect on TCR–pMHC bond distances (latrunculin A) (5C.C7 TCR; listed as LA): no differences in the TCR–pMHC bond distances
0.79 |  |  |  |  | K5(C)-Cy3 peptide on His-tagged IE^k (from UniProt P04230 30-225) (peptide-MHC) | 
0.54 |  |  |  |  | MCC(C)-Cy3 peptide on His-tagged IE^k (from UniProt P04230 30-225) (peptide-MHC) | 
0.29 |  |  |  |  | T102S(C)-Cy3 peptide on His-tagged IE^k (from UniProt P04230 30-225) (peptide-MHC) | 
 | 5 Å | 1.6e-05 µm^4 | 2.4e-06 µm^4 s^−1 | 1.5 s⁻¹ | biotinylated monomeric IE^k covalently complexed with the 102S peptide (from UniProt P04230 30-225) (peptide-MHC) | 
 | 15 Å | 0.00037 µm^4 | 3.6e-05 µm^4 s^−1 | 1 s⁻¹ | biotinylated monomeric IE^k covalently complexed with the K5 peptide (from UniProt P04230 30-225) (peptide-MHC) | 
 | 10 Å | 0.00015 µm^4 | 2e-05 µm^4 s^−1 | 1.3 s⁻¹ | biotinylated monomeric IE^k covalently complexed with the MCC peptide (from UniProt P04230 30-225) (peptide-MHC) | 
